Experimental findings from the nanobody polyreactivity screen of Harvey et al. (2022) are described below.

This data set in a line: yeast display, Sf9 membrane polyspecificity reagent, FACS + sequencing; frameworks hold sequencing errors. In a few lines:
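Polyreactivity labels are assigned by the sorting gate from which each nanobody was recovered. The gates were low and high (top ~1%), set on anti-HA fluorescence for expression and streptavidin fluorescence for reagent binding. Before sorting, galactose-induced (36–48 hours) yeast display cells were stained for 1 hour at 4 °C with 10% biotinylated, detergent-solubilized Sf9 membrane reagent.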
As to “QVQQQESGGGLVQAGGSLRLSCAASGTIFQLTVMGRYRQAPGKERELVASIDYGGNTNYADSVKGRFTISRDNAKNTVYLQMNRLKPEDTAVYYCSASSDSWTTHPYWGQGTQVTVSS”, the “polyreactivity (PSR sort gate)” value is given as “low polyreactivity”. As for “QVQLVESGGGLVQAGGSLRLSCAASGSIFSGYAMGWYRQAPGKERELVAAISRRGTSTYYADSVKGRFTISRDNAKNTVYLQMNSLKPEDTAVYYCAATYGGRQSYGGFDYWGQGTQVTVSS”, the “polyreactivity (PSR sort gate)” value was “high polyreactivity”.

On to “QVQLVESGGGLVQAGGSLRLSCAASGRIFINNAMGWYRQAPGKERELVAAISSRGGSTYYADSVKGRFTISRDNAKKTVYLQMNSLKPEDTAVYYCAVDVYEPRYRRPFHHDYWGQGTQVTVSS”, for which the “polyreactivity (PSR sort gate)” value is recorded as “low polyreactivity”.

As for “QVQLVESGGGLVQAGGSLRLSCASSGSTFPGNAMGWYRQAPGKERELVAAIRDRGTSTYYADSVKGRFTISRDNAKNNVYLQMNSLKPEDTAVYYCAAASRVAKGRWRLYDDWGQGTQVTVSS”, the “polyreactivity (PSR sort gate)” value was “high polyreactivity”. Take “QVQLGESGGGLVQAGGSLRLSCAASGSTFSCYAMGWYRQAPGKEREFVAAISWSGGSTYYADSVKGRFTISRDTAKNTVYLQMNSLKPEDTEVYYCAATRRGPYWWFGYDYWGQGTQVTVSS”: the “polyreactivity (PSR sort gate)” value is on record as “high polyreactivity”.

As for “QVQLVESGGGLVQAGGSLSLSCDASGSIFRSNAMGWYRQAPGKERELVAAISRSGGRTYYADSVKGRFTISRDNAKNTVYLQMNSLKPEDTAVYYCAAQVVRSLKYEYWGQGTQVTVSS”, the “polyreactivity (PSR sort gate)” value was “high polyreactivity”. The entry for “QVQLVDSGGGLVQAGGSLRLSCAASGRTIGFYAMGWYRQAPGKERELVAAINRSGDSTYYADSVKGRFTISRDNAKNTVYLQMNSLKPEDTAVYYCAASYGYRYEYWGQGTQVTVSS” is “high polyreactivity”; for “QVQLVESGGGLVQAGGSLRLSCAASGSIFYVNAMGWYRQAPGKERELVAVNADSVKGRFTISRDNAKNTVYLQMNSLKPEDTAVYYCAAGVNSTTRIYDYWGQGTQVTVSS” it is “low polyreactivity”. Regarding “QVQLVESGGGLVQAGGSLRLSCAASGFTFSWYALGWYRQAPGKERELVAAINWSGTSTYYADSVKGRFTISRDNAKNTVYLQMNSLKPEDTAVYYCNVVVYRWSPVSKLDYWGQGTQVTVSS”, the “polyreactivity (PSR sort gate)” value is “high polyreactivity”.

For the sequence “QVQLVESGGGLVQAGGSLRLSCAASGRTFLLYAMGWYRQAPGKERELVAAITWGGGSTYYADSVKGRFTISRDNAKNTVYLQMNSLKPEDTAVYYCAADGSWHGYGYWGQGTQVTVSS”, the “polyreactivity (PSR sort gate)” value is reported as “low polyreactivity”.

In the case of “QVQLVESGGGLVQAGGSLRLSCAASGLIFFTYAMGWYRQAPGKERELVATISRGGRTKYADSVKGRFTISRDNAKNTVYLQMNSLKPEDTAVSYCAAYLSRSYYAYDYWGQGTQVTVSS”, the “polyreactivity (PSR sort gate)” value is on record as “high polyreactivity”. The entry for “QVQLVESGGGLVQAGGSLRLSCAASGSIFSVYAMGWYRQAPGKERELVAVIWRGGSTNYADSVKGRFTISRDNAKNTVYLQMNSLKPEVTALYYCNARTFYRKFWYQFVSSYGYDYWGQGTQVTVSS” is “low polyreactivity”. Take “QVQLVESGGGLVQAGGSLRFSCAASGRTFQYYTMGWSRQAPGKEREFVAAIRDSGGSTYYADSVKGRFTISRDNAKNTVYLQMNSLKPEDTAVYYCAAYRPRKYDYWGQGTQVTVSS”: the “polyreactivity (PSR sort gate)” value is “high polyreactivity”. Then “QVQLVESGGGLVQAGGSLRLSCAASGLIFYTYAMGWYRQAPGIERELVATISKRDGGTYYADSVKGRFTISRDNAKNTVYLQMNSLKPEDTAVYYCDAERSYSYWAYDYWGQGTQVTVSS”, with “high polyreactivity”; and “QVQLVESGGGLVQAGGSLRLSCAASGITFVWNAMGWYIKEPGKERELVATISRGGVRTYYADSVKGRFTISRDNAKNTVYLQMNSLKPEDTAVYYCNAYFEYYDYWGQGTQVSVSS”, with “low polyreactivity”; and “QVQLVESGGGLVQAGGSLRLSCAASGSTFIAYTMGWYRQAPGKERELVAAISGTGGTTYADSVKGRFTISRDNAKNTVYLQMNSLKPEDTAVYYCAAQYRYTYWGQGTQVTVSS”, with “low polyreactivity”. Take “QVQLVESGGGLVQAGGSLRLSCAASGRIFRYYAMGWYRQAPGKERELVAAIRSDDSTNYADSVKGRFTISRDNAKNTVYLQMNSLKPEDTAVYYCAAVKAYYGGSRSYYYWGQGTQVTVSS”: the “polyreactivity (PSR sort gate)” value was “high polyreactivity”.

With “QVQLQESGVRLVQAGGSLRLSCAASGPISRRSTMGWYRQAPGKERELVTAITRGTNTNYADSVKGRFTISRDNAKNTEYLQMNSLKPEDTAVYYCAAYGVLKPSRGDAVFHRYWGQGTQVTVSS”, the “polyreactivity (PSR sort gate)” value was “low polyreactivity”. Turning to “QVQLVESGGGLVQAGGSLRLSCAASGSTFYQNAMGWYRQAPGKERELVAAISSRGGSTYYADSVKGRFTISRDNAKNTVYLQMNSLKPEDTAVYYCNTGRGSEMDYWGQGTQVTVSS”, the “polyreactivity (PSR sort gate)” value is reported as “high polyreactivity”. On to “QVQLVESGGGLVQAGGSLRLSCAASGRILLTYAMGWYRPAPGKERELVAAISSDSRTYYADSVKGRFTISRDNAQNTVYLQMNSLKPEDTAVYYCVRRRYKYDYWGQGTQVTVSS”, for which the “polyreactivity (PSR sort gate)” value is “low polyreactivity”. Take “QVQLVESGGGLVQAGGSLRLSCAASGRTFTSYAMGWYRQAPGKERELVAAITRGGRTNYADSVKGRFTISRDNAQNTVYLQMNSLKPEDTAVYYCNADGPGYAAKYYWKYDYWGQVTQVTVSS”: the “polyreactivity (PSR sort gate)” value is on record as “low polyreactivity”. The entry for “QVQLVESGGGLVQAGCSLRLSCAASGSIFPFNAMGWYRQAPGKERELVAAITRSGGSTYYADSVKGRFTISRDNAKNTVYLQMNSLKPEDTAVYYCATDPEWPLPAYYYWGQGTQVTVSS” is “low polyreactivity”; for “QVQLVESGGGLVQAGGSLRLSSAASGRMFHFNAMGWYRQARGKERELVARITFSGGSTYYADSVKGRFTISRDNAKNTVYLQMNSLKPEDTAVYYCAVDAPPIFYEGGDYWGQGTQVTVSS” it is “low polyreactivity”; for “QVQLVESGGGLVQAGGSLRLSCAASGFTFRQYSMGWYRQARGKERELVAGISSSGGSTRYADSVKGRFTISRDNAKNTVYFQMNSLKPEDTAVYYCAARIASHHYYYWGQVTQVTVSS” it is “high polyreactivity”. For “QVQLVESGGGLVQAGGSLRLTCAASGSIFPFYAKGWYRQATGKERELVAAISDSGGDTYYADSVKGRFTISRDNAKNTVYLQMNSLKPEDTAVYYCAADCFYNSFNYWGQGTQVTVSS”, the “polyreactivity (PSR sort gate)” value is listed as “low polyreactivity”. As to “QVQLEESGGGLVQAGGSLRLSCAASGSIFDSYAMGWYRAAPGKERELVATINTSGGSTYYADSVKGRFTIHDNAKNTVYLQMNSLKPEDTAVYYCNAGRWVYWQNNFGDYGYWGQGTQVTVSS”, the “polyreactivity (PSR sort gate)” value is given as “low polyreactivity”.

Take “QVQLVESGGGLVQAGGSLSLSCAASGRIFYVNTMGWYRQAPGKERELVATISSAASTNYADSVKGRFTISRDNAKNTVYLQMNSLKPEDTAVYYCNASRLSRLSALSGFYSWGQGTQVTVSS”: the “polyreactivity (PSR sort gate)” value was “low polyreactivity”. Then “QVQLVESGGGLVQAGGSLRLSCAASGSIFLVYGMGWYRPAPGKERELVAAISRTGGRTYYADSVKGRFTISRDNSKNTVYLQMNSLKPEDTAVYYCAAAAQRPEGYYWGQGTQVTVSS”, with “high polyreactivity”; and “QVQLEESGGGLVQAGGSLRLSCAASGSTFRYYVMGWYRPAPGKERYLVAAITSSGSTNYADSVKGRFTISRDNAKNTVYLQMNSLKPEDTAVYYCAAVYRDRSQKKRIFYYWGQGTQVTVSS”, with “high polyreactivity”; and “QVQLVESGGGLVQAGGSLRLSCAASGRTFYGYTMGWYRQAPGKERELVAAISRNGASTFYADSVKGRFTISRDNAKNTVYLQMNSLKPEDTAVYYCNARSWRHTDTSFEYWGQGTQVTVSS”, with “high polyreactivity”.
